From article PMC3741918 (FEBS Open Bio, 2013) come the findings set out here.

Assay [1] has as its target human frataxin variant hFXN56–210 (human) (UniProt Q16595). The assay is described as follows: SEC. Background: SEC sorts molecules by how far they enter the pores of the column.
Assay [2] addresses T1, human frataxin variant hFXN56–210 (human, UniProt Q16595 56-210).
T1 sequence (looked up): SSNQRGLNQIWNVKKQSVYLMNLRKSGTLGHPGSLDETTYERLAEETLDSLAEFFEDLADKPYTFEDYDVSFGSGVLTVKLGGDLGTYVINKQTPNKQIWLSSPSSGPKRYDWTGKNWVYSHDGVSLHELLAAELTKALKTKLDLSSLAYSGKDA
The experiment in a line: aggregation assay.

Turning to “human frataxin variant hFXN56–210 (from UniProt Q16595 56-210) (domain or fragment)”, in assay [1], the percent of the protein in the oligomeric state was 60%.

Regarding SSNQRGLNQIWNVKKQSVYLMNLRKS [peptide hFXN56–81], the binding result in assay [2] was “binds”.
